Data on 1 molecule can be found in patent publication US7063845 (KIRIN BEER, dated 2006).

In the test the target is T1, human CD40 on the cell surface (EL-4 cells transfected with full length human CD40 cDNA); Ramos B cells; human … (human, UniProt P25942 21-277).
T1 construct: whole, on cells; Ramos and peripheral B cells carry their own CD40; also called cell surface human CD40
Kind of test: FACS on EL-4 cells expressing human CD40.

T1 sequence (P25942 21-277): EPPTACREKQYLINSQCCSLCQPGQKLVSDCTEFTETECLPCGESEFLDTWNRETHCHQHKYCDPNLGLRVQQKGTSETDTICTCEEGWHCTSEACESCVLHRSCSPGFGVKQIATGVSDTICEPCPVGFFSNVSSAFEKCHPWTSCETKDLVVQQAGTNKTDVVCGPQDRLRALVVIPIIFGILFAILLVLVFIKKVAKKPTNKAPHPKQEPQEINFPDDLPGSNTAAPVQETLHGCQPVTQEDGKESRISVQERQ

B1: recombinant human anti-CD40 antibody F5-77 (antibody, V domains shown)
VH: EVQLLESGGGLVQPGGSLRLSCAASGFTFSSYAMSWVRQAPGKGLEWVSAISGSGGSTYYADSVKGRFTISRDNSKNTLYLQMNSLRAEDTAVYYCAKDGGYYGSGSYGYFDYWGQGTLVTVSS
VL: DIQMTQSPSSVSGSVGDRVTITCRASQGISSWLAWYQQKPGKAPKLLIYAGSSLQSGVPSRFSGSGFGTDFTLTISSLQPEDFATYYCQQASSFPRTFGQGTKVEIK
notes: also called F5-77 (K1H1); printed F5-17 in claim 19
Regarding B1, the binding result is “binds”.
